Key:
[1] = target: nNOS expressed in transfected HEK293 cells (lysate; also metabolically labelled and purified); test: competition: nNOS (HEK-293) binding to immobilized GST-PSD95 in the presence of His6-CAPON
nNOS [2] = target: T1, nNOS (Rattus norvegicus, UniProt P29476); test: nNOS catalytic activity; type: biochemical; conditions: data not shown
nNOS/PSD95 interaction [3] = test: Coimmunoprecipitation of myc-PSD95 with HA-nNOS in transfected HEK293 cells; type: cell-based; conditions: cotransfection of full-length CAPON expression plasmid
From the text: FIG. 6. CAPON expression prevents the interaction of PSD95 and nNOS. HEK293 cells were transfected with various combinations of expression plasmids for HA-tagged nNOS (HA-NOS), myc-tagged PSD95, or CAPON. Following transfection, the lysates were immunoprecipitated with an anti-HA antibody and bound proteins were detected with the appropriate antibodies. Following cotransfection of HA-NOS and myc-PSD95, myc-PSD95 is detected in anti-HA immunoprecipitates. […] In the absence of HA-nNOS transfection, neither myc-PSD95 or CAPON is immunoprecipitated by anti-HA antibodies.
We wanted to determine if CAPON and PSD95 compete for binding to nNOS in intact cells. Accordingly, we transfected HEK-293 cells with various mixtures of expression plasmids containing cDNAs of hemagglutinin antigen (HA)-tagged nNOS, myc-tagged PSD95 and/or full-length CAPON. Following immunoprecipitation with antibodies to HA, we examined which proteins coprecipitated. In cells expressing HA-nNOS and myc-PSD95, antibodies to HA coprecipitate myc-PSD95 (FIG. 6). When various amounts of CAPON cDNA containing expression plasmids are also transfected, HA-immunoprecipitatescontain CAPON but substantially less PSD95.

nNOS/PSD95 interaction [4] = test: Competition of His6-fusion proteins for nNOS binding to immobilized GST-PSD95; set-up: competition for / block of nNOS-PSD95 interaction: dose or concentration left out as unconfirmed; conditions: for block of nNOS/PSD95 interaction in vitro: no concentration stated
Protocol: (§1) The C-terminal 100 amino acids were fused to a His6 tag and added to HEK293 lysates transfected with nNOS expression plasmids at the indicated fusion protein concentration. This mixture was added to GST-PSD95 (amino acids 20-364) or GST-PSD93 (116-421), the regions of these proteins previously shown to interact with nNOS (Brenrman et al., 1996).
(FIG. 5B) Quantification of CAPON inhibition of the nNOS/PSD95 interaction. HEK293 cells were transfected with nNOS expression plasmids and then metabolically labeled with [^35 S] methionine. Radiolabeled nNOS was purified and mixed with His6 -CAPON as in (A), above. Bound nNOS was resolved by electrophoresis and counts were determined on a Phospholmager.
Transfections were performed with 10 μg of each plasmid using the calcium phosphate method. Following transfection, cells were sonicated in buffer A [50 mM Tris-HCl (pH 7.7), 100 mM NaCl, 2 mM EDTA, and 1% Triton X-100] and cleared by centrifugation. This cellular lysate was incubated with GST-fusion protein immobilized on glutathione-agarose for one hour at 4° C. and washed extensively in HNTG buffer [20 mM Hepes (pH 7.4), 500 mM NaCl, 10% glycerol, and 0.1% Triton X-100] five times, for ten minutes per wash at room temperature. A GST-CAPON fusion protein consisting of amino acids 379-503 was used for binding assays because it was more soluble when expressed in bacteria than larger CAPON fusion proteins.
For quantitative binding experiments, transfected cells were metabolically labeled overnight with […] [^35 S] methionine and nNOS was purified by NADPH elution of 2', 5' ADP ribose as described previously (Bredt and Snyder, 1990).
Since the nNOS PDZ domain is capable of both PDZ-PDZ interactions and PDZ-C-terminal peptide interactions we wondered whether CAPON and PSD95 can bind simultaneously to nNOS or whether their interactions with nNOS are mutually exclusive. To answer this question we incubated lysates of HEK-293 cells containing nNOS with various concentrations of a His6 -CAPON fusion protein, comprising the last 125 amino acids of CAPON, and then added these lysates to GST-PSD95 immobilized on glutathione agarose resin (FIG. 5A). After extensive washing of the resin, we assayed for nNOS bound to PSD95 by Western blot. […] Half maximal reduction of binding is evident between 5 and 50 nM His6 -CAPON (FIG. 5B). […] As controls, we examined the effects of 5 μM His6 -PIN or […] His6 -FK506 binding protein-12 kD (FKBP). […] These effects of CAPON likely reflect its binding to nNOS rather than to the PDZ domains of either PSD95 or PSD93 because CAPON fails to interact with either PSD93 or PSD95 using (i) a two-hybrid assay (see FIG. 1A) and (ii) in vitro experiments utilizing immobilized GST-PSD95 and purified recombinant CAPON (data not shown).

nNOS [5] = target: T1, nNOS; test: CAPON C-terminal peptides as competitors for nNOS binding; set-up: expressed in transfected cells; host or cells: HEK293
[6] = target: nNOS (purified nNOS standard; preparation and species not stated); test: peptide competition; format not described
nNOS PDZ domain = test: Binding of mutagenized His6-CAPON fusion proteins to immobilized GST-NOS (1-100); conditions: His6-fusion of last 100 amino acids of CAPON, last four amino acids given
Protocol: His6 -fusion proteins of the last 100 amino acids of CAPON were generated and incubated with GST-NOS (1-100) immobilized on glutathione agarose.
Recently Cantley and associates (Songyang et al., 1997) identified consensus sequences for binding to several PDZ domains. Binding of PDZ ligands involves the C-terminus of proteins, with determinants of specificity lying within the eight or fewer C-terminal amino acids. A consistent requirement among all the PDZ domain ligands is a hydrophobic residue, such as valine or leucine, as the final amino acid.

[7] = target: T2, nNOS construct comprising amino acids 163-245 (PIN-binding domain of nNOS), Gal4 BD fusion (rat); test: yeast two-hybrid with truncations of nNOS
T2 chain: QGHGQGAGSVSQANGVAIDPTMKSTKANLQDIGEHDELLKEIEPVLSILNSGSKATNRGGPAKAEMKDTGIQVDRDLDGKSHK

nNOS/PSD93 interaction = test: Competition for nNOS binding to immobilized GST-PSD93
Protocol: as §1
Since the nNOS PDZ domain is capable of both PDZ-PDZ interactions and PDZ-C-terminal peptide interactions we wondered whether CAPON and PSD95 can bind simultaneously to nNOS or whether their interactions with nNOS are mutually exclusive. To answer this question we incubated lysates of HEK-293 cells containing nNOS with various concentrations of a His6 -CAPON fusion protein, comprising the last 125 amino acids of CAPON, and then added these lysates to GST-PSD95 immobilized on glutathione agarose resin (FIG. 5A). After extensive washing of the resin, we assayed for nNOS bound to PSD95 by Western blot. […] Half maximal reduction of binding is evident between 5 and 50 nM His6 -CAPON (FIG. 5B). […] As controls, we examined the effects of 5 μM His6 -PIN or […] His6 -FK506 binding protein-12 kD (FKBP). […]

His6-CAPON fusion protein comprising the last 125 amino acids of CAPON
IC50 [1]: 0.005 to 0.05 µM

CAPON: Carboxyl-terminal PDZ ligand of nNOS, 503 amino acid rat cytoplasmic protein
direct inhibition of nNOS catalytic activity (nNOS [2]): does not inhibit | amount of myc-PSD95 in anti-HA precipitates (nNOS/PSD95 interaction [3]): substantially reduces

His6 -FKBP: His6-tagged FK506 binding protein-12 kD, control protein [reference compound]
competition for / block of nNOS-PSD95 interaction (nNOS/PSD95 interaction [4]): Neither of these proteins compete | block of nNOS/PSD95 interaction in vitro (nNOS/PSD95 interaction [4]): do not disrupt

peptides comprising the C-terminal nine residues of CAPON: short, presumably unfolded, peptides comprising the C-terminal nine residues of CAPON (DSLDDEIAV)
binding to nNOS (nNOS [5]): bind nNOS weakly

16-residue peptides: 16-residue peptides of the CAPON C-terminus (LQRQELGDSLDDEIAV; UniProt O54960 488-503, looked up, fragment)
IC50 (nNOS [5]; read-out: IC50 as competitor): 10 µM

LQRQELGDSLDDEIAV [16-residue peptides of CAPON]
IC50 [6]: 10000 µM

B1: EIAA: His6-CAPON (last 100 amino acids), terminal valine mutated to alanine (protein)
chain: GLADFAHPVGSPLGRRDCLVKLECFRFLPAEDNQPMAQGEPLLGGLELIKFRESGIASEYESNTDESEERDSWSQEELPRLLNVLQRQELGDSLDDEIAA
binding to GST-NOS (1-100) (nNOS PDZ domain): prevents binding

B2: EAAV: His6-CAPON (last 100 amino acids), n-2 isoleucine mutated to alanine (protein)
chain: GLADFAHPVGSPLGRRDCLVKLECFRFLPAEDNQPMAQGEPLLGGLELIKFRESGIASEYESNTDESEERDSWSQEELPRLLNVLQRQELGDSLDDEAAV
binding to GST-NOS (1-100) (nNOS PDZ domain): tolerated

B3: ESAV: His6-CAPON (last 100 amino acids), n-2 isoleucine mutated to serine (protein)
chain: GLADFAHPVGSPLGRRDCLVKLECFRFLPAEDNQPMAQGEPLLGGLELIKFRESGIASEYESNTDESEERDSWSQEELPRLLNVLQRQELGDSLDDESAV
binding to GST-NOS (1-100) (nNOS PDZ domain): tolerated

B4: pAD-CAPON1 (Gal4 activation domain fused to the last 125 amino acids of CAPON) (other)
chain: SGALPVLCESTTPKPEDLHSPLLGAGLADFAHPVGSPLGRRDCLVKLECFRFLPAEDNQPMAQGEPLLGGLELIKFRESGIASEYESNTDESEERDSWSQEELPRLLNVLQRQELGDSLDDEIAV
binding result [7]: no binding

B5: His6 -CAPON: His6-tagged fusion protein of the C-terminal 100 or 125 amino acids of CAPON (protein)
chain: SGALPVLCESTTPKPEDLHSPLLGAGLADFAHPVGSPLGRRDCLVKLECFRFLPAEDNQPMAQGEPLLGGLELIKFRESGIASEYESNTDESEERDSWSQEELPRLLNVLQRQELGDSLDDEIAV
binding to GST-NOS (1-100) (nNOS PDZ domain): binds | competition for nNOS binding to immobilized GST-PSD93 (nNOS/PSD93 interaction): effective competitor | reduction of nNOS binding to GST-PSD95 (nNOS/PSD95 interaction [4]; 5 nM fusion protein): substantial reduction | block of nNOS/PSD95 interaction in vitro (nNOS/PSD95 interaction [4]): specifically block | effective concentration range as competitor (nNOS/PSD95 interaction [4]; see FIG. 5): active in the nanomolar range

B6: DC20: His6-CAPON fusion protein with the C-terminal 20 amino acids deleted (protein)
chain: SGALPVLCESTTPKPEDLHSPLLGAGLADFAHPVGSPLGRRDCLVKLECFRFLPAEDNQPMAQGEPLLGGLELIKFRESGIASEYESNTDESEERDSWSQEELPR
competition for / block of nNOS-PSD95 interaction (nNOS/PSD95 interaction [4]): fails to block the interaction | block of nNOS/PSD95 interaction in vitro (nNOS/PSD95 interaction [4]): abolishes its ability to serve as a competitor

— US6103872A, “CAPON: a protein associated with neuronal nitric oxide synthase” (The Johns Hopkins University, priority 1998, dated 2000)
